Results: patent US20250223580

Assays:
[1] = system: HA-Csx30 S526A/Q428A/R530A/Q531A
[2] = system: HA-Csx30 K551A/K553A
[3] = system: Csx30 from Desulfonema ishimotonii, full length
[4] = system: HA-Csx30 M527A
[5] = system: N-terminal HA-tagged Csx30 alanine mutants of individual regions of the Csx29-Csx30 interface
[6] = system: TwinStrep-SUMO-Csx30 1-544 (C-terminal truncation of Csx30)
[7] = system: Csx30 fragment, residues 396-565
Csx30 fragment, residues 396-565, sequence (chain, as listed by the source): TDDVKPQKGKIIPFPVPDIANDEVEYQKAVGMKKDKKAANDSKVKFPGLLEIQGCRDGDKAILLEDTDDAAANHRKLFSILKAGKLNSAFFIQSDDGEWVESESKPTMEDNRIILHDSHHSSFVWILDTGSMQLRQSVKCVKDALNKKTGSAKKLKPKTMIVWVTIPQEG

Csx30 from Desulfonema ishimotonii, full length, sequence (chain, as listed by the source): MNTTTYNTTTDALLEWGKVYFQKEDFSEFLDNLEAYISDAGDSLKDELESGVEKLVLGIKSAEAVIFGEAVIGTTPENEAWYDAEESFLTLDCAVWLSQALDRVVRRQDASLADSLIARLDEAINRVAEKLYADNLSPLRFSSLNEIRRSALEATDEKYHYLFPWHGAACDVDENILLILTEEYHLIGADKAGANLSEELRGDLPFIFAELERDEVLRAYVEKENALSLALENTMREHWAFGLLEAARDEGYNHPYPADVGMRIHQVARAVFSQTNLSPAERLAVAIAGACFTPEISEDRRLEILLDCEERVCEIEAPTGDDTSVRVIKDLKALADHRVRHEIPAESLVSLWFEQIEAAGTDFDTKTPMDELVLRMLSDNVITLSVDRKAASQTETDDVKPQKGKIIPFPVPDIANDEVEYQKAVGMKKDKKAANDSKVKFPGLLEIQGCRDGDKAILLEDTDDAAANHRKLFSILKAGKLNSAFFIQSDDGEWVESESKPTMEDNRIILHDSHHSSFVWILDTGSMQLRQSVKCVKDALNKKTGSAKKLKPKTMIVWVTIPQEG
TwinStrep-SUMO-Csx30 1-544 (C-terminal truncation of Csx30), sequence (chain, as listed by the source): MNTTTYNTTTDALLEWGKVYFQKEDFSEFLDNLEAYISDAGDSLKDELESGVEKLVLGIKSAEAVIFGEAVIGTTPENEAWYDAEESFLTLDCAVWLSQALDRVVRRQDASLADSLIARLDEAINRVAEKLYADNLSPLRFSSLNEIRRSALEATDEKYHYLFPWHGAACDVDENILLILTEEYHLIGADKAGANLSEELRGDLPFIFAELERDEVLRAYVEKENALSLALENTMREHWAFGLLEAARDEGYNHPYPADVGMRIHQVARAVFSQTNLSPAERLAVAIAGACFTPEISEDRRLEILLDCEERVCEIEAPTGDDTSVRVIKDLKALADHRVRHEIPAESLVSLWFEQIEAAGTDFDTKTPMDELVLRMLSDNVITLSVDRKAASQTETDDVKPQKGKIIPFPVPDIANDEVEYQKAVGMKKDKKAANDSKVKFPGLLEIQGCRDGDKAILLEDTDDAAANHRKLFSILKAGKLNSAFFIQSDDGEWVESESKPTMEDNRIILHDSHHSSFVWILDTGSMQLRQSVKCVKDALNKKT

Substance | stated: cleaved (target-RNA-dependent cleavage of HA-Csx30, anti-HA immunoblot) [1] | stated: cleaved (target-RNA-dependent cleavage of HA-Csx30, anti-HA immunoblot) [2] | cleavage of Csx30 in in vitro reactions (immunoblot, SDS-PAGE) [3] | cleavage of Up1 within the purified Up1-Up3 complex (SDS-PAGE, Coomassie) [3] | stated: cleaved (target-RNA-dependent cleavage of HA-Csx30, anti-HA immunoblot) [3] | stated: cleaved (target-RNA-dependent cleavage of HA-Csx30, anti-HA immunoblot) [4] | in vitro cleavage of Csx30 alanine mutants (immunoblot) [5] | molar excess of Csx30 substrate cleaved in vitro [3] | in vitro cleavage of truncated Csx30 (SDS-PAGE) [6] | in vitro cleavage of truncated Csx30 (SDS-PAGE) [7]
Cas7-11-Csx29-crRNA complex | S526A/Q428A/R530A/Q531A: without target RNA only the upper full-length band; with target RNA the upper band is faint and a product band stands just above the 50 kDa mark | K551A/K553A: without target RNA only the upper full-length band; with target RNA a product band just above the 50 kDa mark, and a weaker upper band remains | Csx30, is specifically cleaved in response to a target RNA | only in the lane with gRAMP-CHAT + and target RNA + do bands appear at about 50 kDa and just above 15 kDa, with a weaker Up1 band; the lanes without gRAMP-CHAT, or with gRAMP-CHAT and no target RNA, show only Up1 and Up3; the Up3 band is unchanged | Wildtype: without target RNA only the upper full-length band; with target RNA the upper band is weak and a strong product band stands just above the 50 kDa mark | M527A: without target RNA only the upper full-length band; with target RNA the upper band is faint and a product band stands just above the 50 kDa mark | mutating individual regions of the Csx29-Csx30 interface did not significantly affect Csx30 cleavage |  |  | 
dCas7-11-Csx29-crRNA complex (Cas7-11 D429A/D654A) |  |  |  |  |  |  |  | cleaving 100-fold molar excess of Csx30 substrate in minutes | even a twenty amino acid truncation (Csx301-544) abolished cleavage activity | Csx30 fragments containing residues 396-565 were efficiently cleaved in vitro
